Assay results: publication doi:10.1101/2025.11.17.688798, “Engineering directional phosphoryl flow enables programmable signaling dynamics in bacteria” (bioRxiv, 2025)

B1: Spo0A-REC (domain or fragment, B. subtilis, UniProt P06534 1-123, looked up)
chain: MEKIKVCVADDNRELVSLLSEYIEGQEDMEVIGVAYNGQECLSLFKEKDPDVLVLDIIMPHLDGLAVLERLRESDLKKQPNVIMLTAFGQEDVTKKAVDLGASYFILKPFDMENLVGHIRQVS
notes: PDB 1QMP (Spo0A receiver domain) was the search probe; also called Spo0A receiver domain; A3; source: E. coli BL21 (DE3) pLysS, purified (HisTrap IMAC, TEV cleavage, reverse IMAC, Superdex 75 SEC); not shown: His6, N-terminal, cleaved
B2: Spo0B (enzyme, B. subtilis, UniProt P06535 1-192, looked up)
chain: MKDVSKNQEENISDTALTNELIHLLGHSRHDWMNKLQLIKGNLSLQKYDRVFEMIEEMVIDAKHESKLSNLKTPHLAFDFLTFNWKTHYMTLEYEVLGEIKDLSAYDQKLAKLMRKLFHLFDQAVSRESENHLTVSLQTDHPDRQLILYLDFHGAFADPSAFDDIRQNGYEDVDIMRFEITSHECLIEIGLD
notes: Spo0B, sporulation phosphotransferase of B. subtilis; Two protomers of Spo0B stand in the complex; the Spo0B dimer of PDB 1IXM was the search probe; also called phosphotransferase Spo0B; transferase; source: E. coli BL21 (DE3) pLysS, purified (HisTrap IMAC, TEV cleavage, reverse IMAC, Superdex 75 SEC); not shown: His6, N-terminal, cleaved

How the values were obtained:
Spo0B = molecular target: B2; assay: crystal structure; purified Spo0B and Spo0A-REC mixed at 1:1.1 equivalents with 10 mM MgCl2 in 20 mM Tris-HCl pH 8.0, 0.1 M NaCl; sitting-drop vapour diffusion at 293 K; two crystal forms, 2.1 and 3.5 Å; conditions: both partners purified
[1] = molecular target: the molecule itself; assay: as above

| stoichiometry N (Spo0B) | Binder | binding result [1] |
| --- | --- | --- |
| 1 RR per phosphotransferase chain (printed as 2:2) | B1 |  |
|  | B2 | binds |
